assay: soluble fraction after stress (log2 fold change); higher = more stays soluble; pooled small domains, quantitative proteomics; conditions: stress: 50 degC
Method in brief: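 The measure of aggregation propensity here is the base-two logarithm of the fold change in the soluble amount of each protein after stress. A higher value means more of that protein stays in solution. Stress was applied at 50°C to pooled libraries of small protein domains, read out by high-throughput quantitative proteomics.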

Row | Sequence | soluble fraction (log2)
1 | HMQIIEVPYSEFLKKLESGQISEVSRDSYQIVFTDRSQPPIIYKTGLMEDPGLVDKMQEAGVTFTSP | 0.12
2 | HMQIKNVDYGTFLDMLDEKNVKEVEIEDEQIVFTDNADPTGYYTTGRMEDPDLVDRLHNSGATFSAI | -0.12
3 | HMQILLASHAELAKGILSAVELIAGTQQNLKAYSAYTEAVDVHFKDQMLQDLNKMDPEDEVIL | 0.0294
4 | HMQINLSEWVLAAREYAGPEMTQEKLAEHLGRTKANVSAMENGRSKPSFEQMMEIHRVTGYPLPYQ | -0.218
5 | HMQISDAGALLDAVRRVLAENPAQVEQFRAGKEKVMGFLVGQVMRATGGKANPQMLNDVLREELS | -0.0404
6 | HMQISDEGELSGIVRKIIDANPQSVADYKAGKKKAIGFLVGQIMIETKGRANPASVNELLIKKLE | -0.0642
7 | HMQISDNTILEDAVSRIIDENPKSVSDYFQGKEAVVGFFIGQIMRETKGTANPKIAREIVISHLEAI | -0.778
8 | HMQISGIHLYERRITKDDEWAERKLSEISLAGSLVILILRNEHVVIPNGETVLKENDLLYISD | -2.93
9 | HMQISGSEELEKIVQTVLEKNTDVVEEYKSGKTKVFAFLMGQVMKESRGKANPRLAKDILEKFLA | -0.0362
10 | HMQITAPVQKIDGVEYYMHKVEQGQTLYSISKLYNVGVKEIQKANQLGTEGIQLGQVLKVRKGG | -0.0136
11 | HMQIYLTPEQFKIIDFMEQMGKITVKDVMDILNIPKRTAQLHLQKLKTLKMIAQTGKGPSSAYLL | -0.959
12 | HMQKDAYVPDIISKLKSSRMIVVEGTIYPLLTRLKNTGLLSYRWEESLQGPPRKYYSITEQG | 0.112
13 | HMQKDYKTRLQEYYAKVGKKVNYMDSSTGPDHDKKFQTQVFLDKEIIGVGEGKSKKSSQQEAAKQALEKI | 0.338
14 | HMQKFINQEHEKAYNLMLEKDYQQALKIFDDLIYLFPNEANLLSDRGVIFIHLNKKEAALQDFDQAVF | -2
15 | HMQKIEKVDYGTFLKMIENGEIDQVNLTEKKISFTTDKDAETVYETGRVEDPNIVDRLYQADVEFTQEI | 0.207
16 | HMQKIENYDQFVQAFKRLSGLDLKLYKENQMKRRINNFINNHGFKENYDQFFQAITGNKELYNAFFKHLTI | -0.172
17 | HMQKKYLAVKEYLLEQINSGAYQPDEPIPPEREMAAMLGVNRMTLRRAVEELMYEGLLIRKKGSGTFLTK | -1.52
18 | HMQKLSPKQRRGNIIELIKENPTITAKNISTIFNLNQRTIERDLAKLTEEGYIKYEGSSKDGKWVFL | 0.087
19 | HMQKNKSVLFKDIVIAFNQNPKKLFNYKQLAADLDIHSEAERMLISQLLNDLKDQNFLEEVERGKYKLKL | 0.0237
20 | HMQKPIKPVKMHTVGPKENLSSIGRMYEVNGRVLANYNNIDYDKGLTIGQVLKIPPKGTTLEQVT | 0.431
21 | HMQKTIDWSQVDKEQYLSAMERSPVNDLEIKAILAKALTSDINNRELFMKGLDHSYYFEGYQLFKSE | -0.281
22 | HMQKTQVVEVAGKSYQLTKMDARTGSYVAFKVAGVLAPSGGKTAEMAAALMGMPRKDFDELQSLLLRTV | 0.141
23 | HMQKYSTIIGVIELRQSGIGYRTTKKRYNIGNSTVTLIMNRFHELGLSLEELKAMPPKKVEEAFYPPE | -2.43

Row | Sequence | soluble fraction (log2)
24 | HMQLASILDDIPGIGKKRKENLLTHFGSFSKIQSADIDALAEVPGISRDLAETIHTYLKTHQ | 0.0967
25 | HMQLDLSDPSKNKLDSIVSLPIKSLKAVEANGEILFMSENGRFVLRGQLYDIWYKDTLDTSAQIQDAATRI | 0.109
26 | HMQLDLTSTLDHMYKQMRNDHPRALLMAVEKEMVLRALKETDGNQLRASDILGISRSTLRKRIEEFDINS | -1.09
27 | HMQLEPLITSVIPVNFAKAGEVATTIKGKEVGLVSDRGSITAESRTNVLIVKDIKKNVDDISAMVKRLD | 0.123
28 | HMQLGEEAGDELVAIVRSVINDNDKALADYLAGKSSALKFLLGQVMRQTKGRADHALVQSLLEAELEAL | -0.169
29 | HMQLHDTMKRVYEALDISEQKLAESLGLKLSTIINWQKNGISKIGINKLNQTFGLDMQWILTGQGEPFI | 0.116
30 | HMQLLDIGSAVRIIREPYFGRLGTVVELPPELMEIESGTHARVLKAKLDDGTVAVVPRANVEIIVE | -0.171
31 | HMQLNNTDELEKIILKILENNPKQVDQFLAGKQKLLGFFVGQAMRATSGKANPKTVNDLLEKFLSK | -0.0714
32 | HMQLPDLDEIRQMRKRLDLSQRELAALAGVSQSLIAKIEKGSIDPSYDNVRKIFNAFENILKKRALE | -0.255
33 | HMQLPIGDVKLSVEHLSSGTALQDISFEVHRGEIFGFLGLVGAGRSETAETIFGLREKTDGKISIDGTVL | -0.214
34 | HMQLPTNAAAILRYLSSGAVKGVGSATAVRIVEKFGEETLNILEQDPLRLAEIRGISRDKAKKIGEDFASQ | -0.201
35 | HMQLSMLPYGFARRHGVLLVEQDEQPTLIHRAGITATVIAEVQRVAGQIDAWRLVDDARFDQQLAEVYRD | -1.06
36 | HMQLTPAQHAILAYAIEHTGGKIEWFPDNIKGGARTKVLEGLFNKALITRDSTDWFVAAEGYDALGR | -0.549
37 | HMQLYSLEVLSKKKVDLIENNKNLINLYFNKENGEYSYRLIFKNRKELYQVKDTLDNSSDVVSIKLDL | -0.863
38 | HMQMGLNEAYRVLHVSPDAPWREVQSAYKERMAKSHPDKVSHLGEELQEKAKELTVEINKAYNTIKRYKK | 0.194
39 | HMQMKDRILRIMEHEGISPSKFAEEIGIQRSAMSHIISGRNNPSLDVLTKIMQRFTYVDTDWLLFGKGSMV | -0.737
40 | HMQMPDLTGKPRAEAVTTLAALGFTDVKFLDASAGDEPLDYVADQVVRTSPEAGAALASGQQITIYLAT | 0.101
41 | HMQMSDTSMIRDLVLQVLAENPQSIEDFKNGKDRAVGFLVGMVMKKSQGKANPQITNQMIVEELKK | -0.104
42 | HMQMSERENTILLTKRYIERGEYERAMNLLDSLLIKNALDEEALAMIDEIIALKAGASLQDFPRY | -0.684
43 | HMQMTTPQMVPLFTDLSVDDSASIIKDLERQAVPYQIKSDGAIIMVPKDKVTRLRMKLAESGLPK | 0.25
44 | HMQNDDLTKLDGIGPYIEQRLNDIGIYNYEQLSKLNTEDIQKITELIDFFPGRIERDNWVSQAQLLKI | -0.316
45 | HMQNDILIQADEIVGDYFDMDKEALKMNKQAVIADIEKRQATAQGDEASALHYAKQKVENEFEDDGSQKD | 0.185
46 | HMQNKFLDIVGEIEVKAVDYYLLKDTSGLVIKFPKNLVFANGLKIADNKIGLTVSLYGAWVHEET | -1.17

Row | Sequence | soluble fraction (log2)
47 | HMQNKYIIKQGNSGELVEVLQELLNLKQDGVFGPQTKKAVIAFQQKHKLVADGIVGPMSWRKLNFNPEELF | -2.13
48 | HMQNLISSDEAKNIALQHANLTDNQVTFIKVSKDYDDGIHIYEVEFHYNNREYNYDINAINGTILSYEQ | -0.574
49 | HMQNNKITIYISGAVNRPGIVTIESDKRLYDAVELLGGTTKEADLNGVNLSVRLEDEQHYIIPKIGEA | -0.0996
50 | HMQNNWFYEENGQRKGPVSENEMVQFIKSSVISHGTSVWKQGFPDWLKVENTDLRVHLDNSAP | 0.136
51 | HMQNREQNILDGKSILDKELKRVGLLNQSAAIMAQEMKFNSQDDLFAALGSGATRIGQIINHLQKQS | -0.00642
52 | HMQNSMTTTPDVVGKTGTFAEQMLKAANLNVQFAGDSSGKVVAQDVEAGTSAAYGTIITLTMDS | 0.14
53 | HMQNVKIKAEVKGEVISPGVYELDEESRIQDLIDASGGFSDKAYYDNINLSMKLKDEMVLVVYDKDKI | -0.163
54 | HMQPADYSDLYAAAKSAGEADMRAAFALTDKQERTAAVNAARETIKAALSEEQLADANLGSALKKLEAGV | -0.337
55 | HMQPASPELNNQEKKVLQALPENEVIHIDELSDKIQIPVGELLTVLLSLEMKETVIQEPGKFFRRR | -1.28
56 | HMQPDFLDAKASLALLGVRPQTLYAYVSRGAIRSVPQPGTKAHLYSRSDIERVMARAAARAG | -1.12
57 | HMQPDYRVLYSNFSDKDGGAIVAALEKMNVPYKFSEGGSAILVPAGQVHQARLKLAADGLPK | 0.0409
58 | HMQPLGHDLTERELDVLALMVTGMNNSEIADKLVVSRSTIKYHVSNILSKLQATSRTEAVAYALQQNLVH | -0.469
59 | HMQPQIDFEIDVEVRASSLRIVAAPNSDVLVATVGRGEHVVQLTYPKDGWVMIRTADDRVGFVPESLLL | -0.255
60 | HMQPQYSVLFSNIEEKDGGSIITLLQQGNVPYKVENGGTTILVPANRANELRLTLAAQGLPK | -0.0124
61 | HMQPVLSDAEVNDLKNIAGGERGYNQLMDWAGNNLTAQDAKSYDDVLATGNKAAISFAIKALMGQYEDAN | 0.047
62 | HMQQEAVNLVQSRGQQAIEPVHIMQGVMKVGENVTNFIFQKLGMNGQQVALVVDKQIDSLPKVSGGEPYL | 0.0273
63 | HMQQEAVSGKLLQLDLAKKEGRLSTDLGREVLFHIPKPELFVHLSVGQRIIIKLDAGQEAVGV | -0.0409
64 | HMQQELDAFKLLITVSGVGPKAAMAVLSVLPPDRLSIAVSSGDVKSIQSAQGVGKKTAERIVLELKDKM | -0.814
65 | HMQQIEIEEPITVKNLSAVAGLKASEIIAKLMKLGVMSTINQVMERQHAEEIAGEYGFELVVK | 0.096
66 | HMQQISDPQVLRPMAEEVLHQSQKVVQDYKGGNKNAFHALVGQMMKKTQGKGNPQVIGQVLSELLDE | 0.476
67 | HMQQKNWIVRDGDGKIYGPFTTEQVLVQIDRGYFVGGEEVALYPGGRWIAISGAPEFYDRLLDALAMEG | -0.402
68 | HMQQQLLHIVFGGELKDVTGIEFEDLSKMDFVGAFSNYKDAYDAWKSAAQRTVDHAEMRYFILHAHKLL | -5.48
69 | HMQQRTVEHVDTAVEALALSIGERAGVDLPYMAHLTGKTQEDLIEDLTGVIFPVPGTEPLRYVTADDYLS | 0.028
